In PMC11698656 one finds stoichiometry N and stoichiometry N (CaM per TRPV6 tetramer) data, which are given here for three substances.

Assay [1] concerns the target ancestral human TRPV6 (R157, V378, T681) (human). The experiment in a line: cryo-EM structure.
Assay [2] has as its target derived human TRPV6 (C157, M378, M681) (human). Kind of assay: cryo-EM structure.

In the case of “ancestral human TRPV6 (R157, V378, T681) (natural protein)”, the stoichiometry N (commonly a count of units in the complex or per binding partner) in assay [1] was determined as 4 subunits. For “endogenous calmodulin (CaM) (from UniProt P0DP23 1-149) (natural protein)”, the stoichiometry N (CaM per TRPV6 tetramer) in assay [1] is 1.

Turning to “derived human TRPV6 (C157, M378, M681) (natural protein)”, the stoichiometry N in assay [2] was 4.
